Measurements reported in publication PMC3410803.

Test system: anti-MPT64 antibody (purified rabbit antibody to recombinant M. tuberculosis H37Rv MPT64) (rabbit)
Assay: ELISA
Conditions: 20 mM Hepes pH 7.35, 120 mM KCl, 1 mM CaCl2, 1 mM MgCl2 ([…]

**Q.** “GGGAGCTCAGAATAAACGCTCAAAAACGCTCAAGAGGCCCGGATCTTCGACATGAGGCCCGGATC [MPT64-A1]” was tested. Which binding signal did it give?
**A.** 1.62 OD450
